Consider 15 variants from the RNAGym collection of RNA variant scans (doi:10.1093/molbev/msab373).

B1: Azoarcus group I ribozyme (parent)
chain: GUGCCUUGCGCCGGGAAACCACGCAAGGGAUGGUGUCAAAUUCGGCGAAACCUAAGCGCCCGCCCGGGCGUAUGGCAACGCCGAGCCAAGCUUCGGCGCCUGCGCCGAUGAAGGUGUAGAGACUAGACGGCACCCACCUAAGGCAAACGCUAUGGUGAAGGCAUAGUCCAGGGAGUGGCGAAAGUCACACAAACCGG

This data set covers variants of B1. The experiment in a line: reverse-splicing fitness (ratio to wild type); higher = more active; in vitro selection; Mg2+ level not given. The method in brief:
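An in vitro group I ribozyme library with randomized positions was T7-transcribed and gel-purified. In triplicate, 10 pmol RNA in EPPS pH 7.5 was reacted with 50 pmoles of a 30-nt RNA substrate for 1 h at 37 °C across several added MgCl2 levels (1–48 mM), then stopped with EDTA. Products were reverse transcribed from a substrate-complementary primer, PCR-amplified and sequenced (HiSeq 4000). Fitness is a variant's read proportion after selection over that before, normalised to wild type.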
As for GUGCCUUGCGCCGGGAAACCACGCAAGGGAUGGUGUCAAAUUCGGCGAAACCUAAGCGCCCGCCCGGGCGUAUGGCAACGCAGAGCCAAGCUUCGGCGCCUGCGCCGAUGUAGGUGUAGCGACUAGACGGCACCCACCUAAGGCAAACGCUAUGGUGAAGGCAUAGUCUAGGGAGGGGCGAAAGUCACACAAACCGG [C82A A111U A120C C169U U176G], the reverse-splicing fitness came to 0.00659. For GUGCCUUGCGCCGGGAAACCACGCAAGGGAUGGUGUCAAAUUCGGCGAAACCUAAGCGCCCGCCCGGGCGUAUGGCAACGCAGAGCCAAGCUUCGGCGCCUGCGCCGAUGUAGGUGUAGCGACUAGACGGCACCCACCUAAGGCAAACGCUAUGGUGAAGGCAUAGUCUAGGGAGAGGCGAAAGUCACACAAACCGG [C82A A111U A120C C169U U176A] the value was 0.0177. As to GUGCCUUGCGCCGGGAAACCACGCAAGGGAUGGUGUCAAAUUCGGCGAAACCUAAGCGCCCGCCCGGGCGUAUGGCAACGCAGAGCCAAGCUUCGGCGCCUGCGCCGAUGUAGGUGUAGCGACUAGACGGCACCCACCUAAGGCAAACGCUAUGGUGAAGGCAUAGUCUAGGGAGCGGCGAAAGUCACACAAACCGG [C82A A111U A120C C169U U176C], the reverse-splicing fitness amounted to 0.0158.

Take GUGCCUUGCGCCGGGAAACCACGCAAGGGAUGGUGUCAAAUUCGGCGAAACCUAAGCGCCCGCCCGGGCGUAUGGCAACGCAGAGCCAAGCUUCGGCGCCUGCGCCGAUGUAGGUGUAGCGACUAGACGGCACCCACCUAAGGCAAACGCUAUGGUGAAGGCAUAGUCAAGGGAGCGGCGAAAGUCACACAAACCGG [C82A A111U A120C C169A U176C]: the reverse-splicing fitness stood at 0.0277. For GUGCCUUGCGCCGGGAAACCACGCAAGGGAUGGUGUCAAAUUCGGCGAAACCUAAGCGCCCGCCCGGGCGUAUGGCAACGCAGAGCCAAGCUUCGGCGCCUGCGCCGAUGUAGGUGUAGCGACUAGACGGCACCCACCUAAGGCAAACGCUAUGGUGAAGGCAUAGUCAAGGGAGAGGCGAAAGUCACACAAACCGG [C82A A111U A120C C169A U176A] the value was 0.0222. The value for GUGCCUUGCGCCGGGAAACCACGCAAGGGAUGGUGUCAAAUUCGGCGAAACCUAAGCGCCCGCCCGGGCGUAUGGCAACGCAGAGCCAAGCUUCGGCGCCUGCGCCGAUGUAGGUGUAGCGACUAGACGGCACCCACCUAAGGCAAACGCUAUGGUGAAGGCAUAGUCAAGGGAGGGGCGAAAGUCACACAAACCGG [C82A A111U A120C C169A U176G] was 0.00734; that for GUGCCUUGCGCCGGGAAACCACGCAAGGGAUGGUGUCAAAUUCGGCGAAACCUAAGCGCCCGCCCGGGCGUAUGGCAACGCAGAGCCAAGCUUCGGCGCCUGCGCCGAUGUAGGUGUAGCGACUAGACGGCACCCACCUAAGGCAAACGCUAUGGUGAAGGCAUAGUCGAGGGAGCGGCGAAAGUCACACAAACCGG [C82A A111U A120C C169G U176C] was 0.0298.

GUGCCUUGCGCCGGGAAACCACGCAAGGGAUGGUGUCAAAUUCGGCGAAACCUAAGCGCCCGCCCGGGCGUAUGGCAACGCAGAGCCAAGCUUCGGCGCCUGCGCCGAUGUAGGUGUAGCGACUAGACGGCACCCACCUAAGGCAAACGCUAUGGUGAAGGCAUAGUCGAGGGAGGGGCGAAAGUCACACAAACCGG [C82A A111U A120C C169G U176G]: the reverse-splicing fitness amounted to 0.00706. Turning to GUGCCUUGCGCCGGGAAACCACGCAAGGGAUGGUGUCAAAUUCGGCGAAACCUAAGCGCCCGCCCGGGCGUAUGGCAACGCAGAGCCAAGCUUCGGCGCCUGCGCCGAUGUAGGUGUAGCGACUAGACGGCACCCACCUAAGGCAAACGCUAUGGUGAAGGCAUAGUCGAGGGAGAGGCGAAAGUCACACAAACCGG [C82A A111U A120C C169G U176A], the reverse-splicing fitness was 0.0231.

As to GUGCCUUGCGCCGGGAAACCACGCAAGGGAUGGUGUCAAAUUCGGCGAAACCUAAGCGCCCGCCCGGGCGUAUGGCAACGCAGAGCCAAGCUUCGGCGCCUGCGCCGAUGUAGGUGUAGCGACUAGACGGCACCCACCUAAGGCAAACGCUAUGGUGAAGGCAUAGUCCAGGGAGAGGCGAAAGUCACACAAACCGG [C82A A111U A120C U176A], the reverse-splicing fitness amounted to 0.0152. For GUGCCUUGCGCCGGGAAACCACGCAAGGGAUGGUGUCAAAUUCGGCGAAACCUAAGCGCCCGCCCGGGCGUAUGGCAACGCAGAGCCAAGCUUCGGCGCCUGCGCCGAUGUAGGUGUAGCGACUAGACGGCACCCACCUAAGGCAAACGCUAUGGUGAAGGCAUAGUCCAGGGAGCGGCGAAAGUCACACAAACCGG [C82A A111U A120C U176C] the value was 0.0279; for GUGCCUUGCGCCGGGAAACCACGCAAGGGAUGGUGUCAAAUUCGGCGAAACCUAAGCGCCCGCCCGGGCGUAUGGCAACGCAGAGCCAAGCUUCGGCGCCUGCGCCGAUGUAGGUGUAGCGACUAGACGGCACCCACCUAAGGCAAACGCUAUGGUGAAGGCAUAGUCCAGGGAGGGGCGAAAGUCACACAAACCGG [C82A A111U A120C U176G], 0.00616; for GUGCCUUGCGCCGGGAAACCACGCAAGGGAUGGUGUCAAAUUCGGCGAAACCUAAGCGCCCGCCCGGGCGUAUGGCAACGCAGAGCCAAGCUUCGGCGCCUGCGCCGAUGUAGGUGUAGCGACUAGACGGCACCCACCUAAGGCAAACGCUAUGGUGAAGGCAUAGUCUAGGGAGUGGCGAAAGUCACACAAACCGG [C82A A111U A120C C169U], 0.0143. The value for GUGCCUUGCGCCGGGAAACCACGCAAGGGAUGGUGUCAAAUUCGGCGAAACCUAAGCGCCCGCCCGGGCGUAUGGCAACGCAGAGCCAAGCUUCGGCGCCUGCGCCGAUGUAGGUGUAGCGACUAGACGGCACCCACCUAAGGCAAACGCUAUGGUGAAGGCAUAGUCGAGGGAGUGGCGAAAGUCACACAAACCGG [C82A A111U A120C C169G] was 0.00957; that for GUGCCUUGCGCCGGGAAACCACGCAAGGGAUGGUGUCAAAUUCGGCGAAACCUAAGCGCCCGCCCGGGCGUAUGGCAACGCAGAGCCAAGCUUCGGCGCCUGCGCCGAUGUAGGUGUAGCGACUAGACGGCACCCACCUAAGGCAAACGCUAUGGUGAAGGCAUAGUCAAGGGAGUGGCGAAAGUCACACAAACCGG [C82A A111U A120C C169A] was 0.00982.
